# Source: patent US10918733B2, “Lipopeptide- and lipoprotein-conjugates and its use” (HELMHOLTZ-ZENTRUM FUER INFEKTIONSFORSCHUNG GMBH, priority 2009, dated 2021)
# B1: Ova: model antigen ovalbumin (Sigma Chemie) (protein, UniProt P01012 2-386, looked up)
# Ovalbumin: GSIGAASMEFCFDVFKELKVHHANENIFYCPIAIMSALAMVYLGAKDSTRTQINKVVRFDKLPGFGDSIEAQCGTSVNVHSSLRDILNQITKPNDVYSFSLASRLYAEERYPILPEYLQCVKELYRGGLEPINFQTAADQARELINSWVESQTNGIIRNVLQPSSVDSQTAMVLVNAIVFKGLWEKAFKDEDTQAMPFRVTEQESKPVQMMYQIGLFRVASMASEKMKILELPFASGTMSMLVLLPDEVSGLEQLESIINFEKLTEWTSSNVMEERKIKVYLPRMKMEEKYNLTSVLMAMGITDVFSSSANLSGISSAESLKISQAVHAAHAEINEAGREVVGSAEAGVDAASVSEEFRADHPFLFCIKHIATNAVLFFGRCVSP
# Experiments:
# [1] = tested on: Ova-specific secretory IgA; assay: Local Ova-specific secretory IgA in lavages after i.n. immunization (ELISA); assay type: in vivo, C57BL6 mice; conditions: day 38
# Method: Experimental protocol: at day 38, mice were sacrificed and the final sampling was performed. Vaginal and lung lavages were obtained by flushing the organs with 1 ml of PBS supplemented with 50 mM EDTA, 0.1% BSA, and 10 mM PMSF. Lavages were then centrifuged to remove debris (10 min at 3000×g), and supernatant fluids were stored at −20° C. To determine the concentration of total IgA present in the lung and vaginal lavages, serial dilutions of the corresponding samples were incubated in microtiter plates that were previously coated with goat anti-mouse IgA (Sigma Chemie), as capture antibodies (100 μl/well). Serial dilutions of purified mouse IgA (Sigma Chemie) were used to generate a standard curve.
# To investigate the capacity of BPPcysOva^mPEG to stimulate local immune responses given by the i.n. route, we analyzed the production of Ova-specific secretory IgA in lung, nasal and vaginal lavages from immunized animals.
# FIG. 5: Humoral responses stimulated following vaccination using BPPcysOva^mPEG. […] At day 38 post primary immunisation, serum samples were collected and the IgG 1 and IgG2c titres of Ova-specific antibodies were determined by ELISA. […] At day 38 post primary immunisation broncho alveolar lavage (BAL), nasal lavages (NL) and Vaginal lavages (VL) were collected and the Ova-specific secretory IgA (sIgA) expression in samples of immunized mice were determined by ELISA.
# [2] = tested on: Ova-specific CD8+ T cells; assay: Proliferation of CFSE-stained T cells co-cultured with treated DC: CD8+ T cells; assay type: cell-based, OT1-tg mice; conditions: DC incubated with 10 μg/mL for 24 h, co-culture 4 days
# Method: T cell-mediated immune responses were investigated 96 h by measuring the proliferation of cells recovered from spleens after restimulation with BPPcysOva^mPEG. Non-Ag restimulated spleen cells were chosen as negative controls (FIG. 3). […] Taking into consideration that the BPPcysOva^mPEG has a promising effect on DC activation and maturation, next the capacity of these APC to stimulate the proliferation of antigen-specific CD8+ and CD4+ T cells was evaluated. Concentrations below 10^−8 M of BPPcysOva^mPEG were still able to induce an antigen specific proliferation of CD4+ T cells shown by the reduction of CFSE+ cells (FIGS. 4A-E).
# FIG. 4: Proliferation of CD8+, CD4+ and regulatory T cells. DC were generated from bone marrow of C57BL/6 mice and incubated with 10 μg/mL of B) Ova C) Ova peptides, D) Ova in the presence of BPPcysMPEG and E) BPPcysOva^mPEG alone (A) Control) for 24 h. The following day, CD4+ T cells from spleens of OT2-tg animals or CD8+ T cells of OT1-tg animals were isolated. After staining with CFSE, CD8+, CD4+ T cells were co-cultured with adjuvant-treated DCs for 4 days. The decrease of CFSE-FITC expression due to cell division of CD8+ or CD4+ T cells were analysed by flow cytometric analysis. One representative experiment out of two is shown.
# [3] = Tolerability during the immunization period; assay type: in vivo, C57BL6 mice; conditions: i.n. or s.c. immunization
# Method: Experimental protocol 1: six-eight weeks-old female C57BL6 mice were purchased from Harlan Winkelmann GmbH (Borchen, Germany) and treated in accordance with local and European Community guidelines. Groups of 5 mice each were immunized on day 1, 14 and 28 with 30 μg of Ova (Sigma Chemie, Deisenhofen, Germany) or LPS-free Ova (EndoGrade Ovalbumin, Hyglos GmbH) alone, co-administered with 5 μg of BPPcysMPEG or with 5 to 10 μg of synthetic BPPcysOva^mPEG alone. For intranasal (i.n.) immunization, 10 μl were applied to each naris, whereas for the s.c. the compounds were resuspended in 50 μl of PBS per dose. Serum samples were collected at different time points (day 0, 13, 27 and 38) after immunization and stored at −20° C. prior to determination of Ova-specific antibodies. 96-well Nunc-Immuno MaxiSorp assay plates (Nunc, Roskilde, Denmark) were coated with 100 μl of Ova (Sigma Chemie, Deisenhofen, Germany) at 5 μg/ml in 0.05 M carbonate buffer (pH 8.2) per well. Serial two-fold dilutions of sera or lavages in PBS with 1% BSA and 0.05% Tween 20 were added (100 μl/well), and plates incubated for 2 h at 37° C. […] Endpoint titers were expressed as the reciprocal log2 of the last dilution, which gave an optical density at 405 nm of 0.1 units above the values of the negative controls after 15 to 30 min of incubation. […]
molecule,measurement,setting,value
B1,Ova-specific IgA in lung lavages,[1],failed to stimulate the production of detectable levels
same,stimulation of proliferation of Ova-specific CD8+ T cells by treated DC,[2],very efficiently
same,adverse effect during the immunization period,[3],no adverse effect
